PMC9652377

Biological target: β-arrestin-2-YFP, P32121
Assay: BRET (CXCR4-RLuc / βarr2-YFP) in HEK293T cells
Details: chain shown with the change; CXCL12 1e-6 M (highest concentration of the curve), 15 min; coel-h 10 min; parent: est. 0.11; read off a plot

β-arrestin-2-YFP, P32121, sequence (P32121 whole entry): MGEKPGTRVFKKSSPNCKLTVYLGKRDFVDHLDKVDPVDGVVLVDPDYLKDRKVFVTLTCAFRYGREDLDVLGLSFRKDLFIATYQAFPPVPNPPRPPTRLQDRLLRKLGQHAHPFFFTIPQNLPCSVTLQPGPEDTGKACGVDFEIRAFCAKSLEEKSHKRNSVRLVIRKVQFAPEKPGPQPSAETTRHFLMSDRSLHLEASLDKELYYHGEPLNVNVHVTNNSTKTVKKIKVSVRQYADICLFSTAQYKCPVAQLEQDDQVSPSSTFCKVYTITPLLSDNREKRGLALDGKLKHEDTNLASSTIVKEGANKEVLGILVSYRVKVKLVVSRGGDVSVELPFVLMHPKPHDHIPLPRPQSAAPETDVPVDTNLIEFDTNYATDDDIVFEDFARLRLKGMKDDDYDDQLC

response: 0.09 ΔBRET
B1: chemokine receptor CXCR4 WT, CXCR4-RLuc, P61073 V198F + V197M/V198W (protein)
chain: MEGISIYTSDNYTEEMGSGDYDSMKEPCFREENANFNKIFLPTIYSIIFLTGIVGNGLVILVMGYQKKLRSMTDKYRLHLSVADLLFVITLPFWAVDAVANWYFGNFLCKAVHVIYTVNLYSSVLILAFISLDRYLAIVHATNSQRPRKLLAEKVVYVGVWIPALLLTIPDFIFANVSEADDRYICDRFYPNDLWVMWFQFQHIMVGLILPGIVILSCYCIIISKLSHSKGHQKRKALKTTVILILAFFACWLPYYIGISIDSFILLEIIKQGCEFENTVHKWISITEALAFFHCCLNPILYAFLGAKFKTSAQHALTSVSRGSSLKILSKGKRGGHSSVSTESESSSFHSS
